The values below come from article doi:10.1101/2025.04.18.649563.

The target in the assay is actin purified from muscle acetone powder (ground beef); polymerised to F-actin (Bos taurus (ground beef)) (UniProt P68138). As to the kind of experiment: co-sedimentation.

Several values for one entry are separate records, joined by “and”; a condition that tells them apart may be missing. Equal values may be shown once.

For orientation: Kd means a measure of binding affinity in units of concentration. Regarding “Lfat1 ABD [change], recombinant (from UniProt Q5ZVQ3 138-355) (domain or fragment)”, the Kd is 19.1 µM and 16.3 µM and 63.7 µM.
